# Substitutions are numbered along the chain they refer to.
# B1: 42G9 (antibody, V domains shown)
# VH: QVTLKESGPVLLKPTETLTLTCTVSGFSLSNPRMGVSWIRQPPGKALEWFAHIFSTDEKSLKLSLRSRLTLSKDTSKSQVVLTMTNMAPVDSATYYCARDSSNYEGYFDFWGQGTLVTVSS
# VL: EVVLTQSPATLSVSPGERATLSCRASQSVRSNLAWYQQKSGQAPRLLIYGSTIRATGVPARFSGSGSGTEFTLTISSLQSEDFAVYYCQQYSDWPFTFGPGTKVDIK
# notes: Hybridoma supernatant (AlivaMab mouse); captured/detected via mouse Fc; also called mAb 42G9
# B2: 12H6 (antibody, V domains shown)
# VH: B1 VH with L12V, P32A, F50L, L61I, K62R, L63R, A88D, S92T, F110Y
# VL: EVVMTQSPATLSVSPGERATLSCRASQGVSSNFAWYQQRPGQSPRLLLYGASTRATGVPGRFSGSGSGTENILTISSLQSEDFAIYFCQQYKDWPFTFGPGSKVDIK
# notes: Hybridoma supernatant (AlivaMab mouse); captured/detected via mouse Fc
# B3: 14C11 (antibody, V domains shown)
# VH: B1 VH with L12V, S30N, P32A, L61F, K62R, L63T, A88D, S92T, F110Y, T115I
# VL: EIVMTQSPATLSVSPGERATLSCRASQSVSNNLAWYQQKPGQAPRLLIYGASTRATGVPARFSGSDSGTEFSLTISSLQSEDFAVYFCQQYKDWPFTFGPGTKVEIK
# notes: as for B2
# B4: 49B11 (antibody, V domains shown)
# VH: B1 VH with L12V, P32V, T56S, L61I, K62R, L63R, A88D, S92T, F110Y
# VL: EMEVTQSPATLSVSPGERATLSCRASQNIGSDLAWYQQQSGQAPRLLISGASTRATGVPTRFSGSGSGTDFTLTITSLQSEDFAVYYCQQYNDWPFTFGPGTKVDIK
# notes: as for B2
# B5: 19A9 (antibody, V domains shown)
# VH: B1 VH with K5E, L12V, P32A, L47P, K62R, A88D, S92T, F110Y
# VL: EVVMTQSPATLSVSPGERATLSCRASQSVNRNLAWYQQKPGQAPRLLIFGTSTRATGIPARFSGSGSGTEFTLTIDSLQSEHSGLYYCQQYNDWPFTFGPGTKVDIK
# notes: as for B2
# B6: 21E11 (antibody, V domains shown)
# VH: B1 VH with L12V, P32V, T56S, L61I, K62R, L63R, A88D, S92T
# VL: B4 VL with E1D, E3V, N28S, I29V, Q39P, S40P, A43S, S49Y, T60A, Q79E
# notes: as for B2
# B7: 11B11 (antibody, V domains shown)
# VH: QVTLKESGPVLVKPTETLTLTCTVSGFSLSNAKMGVSWIRQPPGKALEWLAHIFSTDEKSIRRSLRSRLTMSKDTSKSQVVLTMTNMDPVDTATYYCVRDSSNYEGYFDYWGQGTLVTVSS
# VL: B2 VL with V3L, G28S, S31T, S43A, Y49F, V58I, D105E
# notes: as for B2
# What was measured:
# [1] = biological target: T1, 8-histidine tagged recombinant wild-type protein EGFRwt (UniProt P00533 25-645, limits assumed); assay: SPR, captured by anti-mouse Fc
# T1 construct: not shown: 8-histidine tag
# [2] = biological target: T2, human EGFRvIII expressed on cells (human, UniProt P00533 298-1210); assay: flow cytometry, F98-npEGFRvIII cells
# T2 construct: the F98-npEGFRvIII line was obtained from ATCC and its construct is not described; also called F98-npEGFRvIII; F98-EGFRvIII
# [3] = biological target: T3, Monomeric 8-histidine tagged human EGFRvIII extracellular domain (human, UniProt P00533 298-645); assay: SPR, captured by anti-mouse Fc, 37 C
# T3 construct: Analyte in all SPR assays; not shown: 8-histidine tag
# Excerpt: To generate human antibodies against EGFRvIII, transgenic AlivaMab mice (Ablexis LLC, San Francisco, Calif.) were immunized with alternating schedule of paraformaldehyde-fixed rat glioblastoma cell line expressing EGFRvIII, F98-npEGFRvIII (American Type Culture Collection, Manassas, Va.) and peptides (SEQ ID NO: 227: […]) directed to the junction region in EGFRvIII. Hybridomas were generated using standard techniques. To determine the binding affinity and specificity of these hybridomas to EGFRvIII, antibodies in culture supernatants were captured by anti-mouse Fc using Biacore™ T200 biosensor equipped with anti-mouse Fc coupled CM4 sensor chips (Biacore™ AB, Uppsala, Sweden—now GE Healthcare). Monomeric 8-histidine tagged human EGFRvIII extracellular domain was then injected as the analyte at 10-fold dilution series starting with top concentration 1000 nM. Affinity of anti-EGFRvIII antibodies towards human EGFRvIII was measured at 37° C.
# [4] = biological target: T2, human EGFRvIII expressed on cells; assay: flow cytometry, F98-npEGFRvIII against F98, F98-EGFRwt and A431 cells
Binder,binding result [1],% positive [2] [%],MFI [2],Kd [3] [nM],koff [3] [s⁻¹],kon [3] [M⁻¹ s⁻¹],fold MFI on EGFRvIII expressing cell line over non-expressing cell lines [4] [fold]
B1,no binding (tested: 1000 nM),98.5,3250,8.2,0.000563,68800,≥ 10
B2,no binding (tested: 1000 nM),98.3,3440,12.4,0.000733,59300,≥ 10
B3,no binding (tested: 1000 nM),98.2,3210,78.5,0.00593,75500,≥ 10
B4,no binding (tested: 1000 nM),98.5,2980,9.1,0.000695,76400,≥ 10
B5,no binding (tested: 1000 nM),98.1,3100,18.6,0.00104,55800,≥ 10
B6,no binding (tested: 1000 nM),98.5,3100,9.5,0.000632,66600,≥ 10
B7,no binding (tested: 1000 nM),98.2,3390,21.7,0.00113,52100,≥ 10

# From patent publication US20190144550A1 (Pfizer, published 2019)
